What all share (assay): flow cytometry, transfected 293T cells, 2 mM CaCl2
(In general: In flow cytometry, cells or beads pass a laser one at a time.)

The target in test [1] is T1, ckCDH19(1-43)::FLAG::ckCDH19(44-141)::huCDH19(142-249)::ckCDH19(250-776) (construct L, Hu EC2) (human/chicken chimera).
T1 construct: leader (1-43 of the entry) left out
T1 chain: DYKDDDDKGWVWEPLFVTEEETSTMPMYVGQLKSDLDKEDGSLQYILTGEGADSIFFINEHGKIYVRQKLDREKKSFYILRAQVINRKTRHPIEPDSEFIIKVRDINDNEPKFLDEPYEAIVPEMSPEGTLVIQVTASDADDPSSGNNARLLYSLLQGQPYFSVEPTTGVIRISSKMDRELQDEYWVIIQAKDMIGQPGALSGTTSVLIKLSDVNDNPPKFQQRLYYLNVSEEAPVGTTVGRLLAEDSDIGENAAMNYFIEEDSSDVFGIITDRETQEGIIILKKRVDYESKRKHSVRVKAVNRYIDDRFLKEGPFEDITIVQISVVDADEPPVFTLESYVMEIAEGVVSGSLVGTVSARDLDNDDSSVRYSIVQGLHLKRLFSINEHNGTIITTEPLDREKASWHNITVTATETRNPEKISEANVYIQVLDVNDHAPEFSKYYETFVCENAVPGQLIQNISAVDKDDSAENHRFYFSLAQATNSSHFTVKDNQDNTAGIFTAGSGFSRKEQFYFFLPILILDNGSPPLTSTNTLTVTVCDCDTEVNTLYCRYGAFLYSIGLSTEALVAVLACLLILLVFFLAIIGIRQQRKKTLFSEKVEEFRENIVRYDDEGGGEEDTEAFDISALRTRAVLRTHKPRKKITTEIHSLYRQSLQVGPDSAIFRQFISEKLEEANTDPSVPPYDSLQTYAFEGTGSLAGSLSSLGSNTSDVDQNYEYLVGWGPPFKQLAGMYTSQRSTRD

In test [2] the target is T2, ckCDH19(1-43)::FLAG::ckCDH19(44-468)::huCDH19(464-772) (construct O, Hu EC5) (human/chicken chimera).
T2 construct: leader (1-43 of the entry) left out
T2 chain: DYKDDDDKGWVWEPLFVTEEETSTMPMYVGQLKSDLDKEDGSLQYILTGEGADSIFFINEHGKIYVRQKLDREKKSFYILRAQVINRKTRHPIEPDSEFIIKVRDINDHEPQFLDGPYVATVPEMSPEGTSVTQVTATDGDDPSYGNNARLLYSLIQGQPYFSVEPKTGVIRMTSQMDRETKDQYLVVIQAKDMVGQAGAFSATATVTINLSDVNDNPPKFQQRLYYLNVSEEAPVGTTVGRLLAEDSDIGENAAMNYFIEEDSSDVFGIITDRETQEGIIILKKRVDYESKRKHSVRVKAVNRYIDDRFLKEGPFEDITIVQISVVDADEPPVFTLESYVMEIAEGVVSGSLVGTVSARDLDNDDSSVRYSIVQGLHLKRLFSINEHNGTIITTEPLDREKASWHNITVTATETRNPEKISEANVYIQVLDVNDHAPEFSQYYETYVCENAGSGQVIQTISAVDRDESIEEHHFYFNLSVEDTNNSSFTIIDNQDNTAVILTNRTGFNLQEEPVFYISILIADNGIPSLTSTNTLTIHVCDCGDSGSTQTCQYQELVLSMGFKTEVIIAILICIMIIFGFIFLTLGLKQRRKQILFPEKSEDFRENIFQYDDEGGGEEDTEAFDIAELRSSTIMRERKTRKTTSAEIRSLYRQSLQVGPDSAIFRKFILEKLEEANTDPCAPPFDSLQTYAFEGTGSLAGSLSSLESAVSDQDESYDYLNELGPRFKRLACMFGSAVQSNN

Test [3] has as its target T3, ckCDH19(1-43)::FLAG::ckCDH19(44-249)::huCDH19(250-364)::ckCDH19(365-776) (construct M, Hu EC3) (human/chicken chimera).
T3 construct: leader (1-43 of the entry) left out

Test [4] has as its target T4, rhCDH19(1-43)::FLAG::rhCDH19(44-141)::raCDH19(140-247)::rhCDH19(250-772) (construct V, ra EC2) (rhesus macaque/rat chimera, UniProt Q9H159 44-772 (human entry)).
T4 construct: leader (1-43 of the entry) left out
T4 chain: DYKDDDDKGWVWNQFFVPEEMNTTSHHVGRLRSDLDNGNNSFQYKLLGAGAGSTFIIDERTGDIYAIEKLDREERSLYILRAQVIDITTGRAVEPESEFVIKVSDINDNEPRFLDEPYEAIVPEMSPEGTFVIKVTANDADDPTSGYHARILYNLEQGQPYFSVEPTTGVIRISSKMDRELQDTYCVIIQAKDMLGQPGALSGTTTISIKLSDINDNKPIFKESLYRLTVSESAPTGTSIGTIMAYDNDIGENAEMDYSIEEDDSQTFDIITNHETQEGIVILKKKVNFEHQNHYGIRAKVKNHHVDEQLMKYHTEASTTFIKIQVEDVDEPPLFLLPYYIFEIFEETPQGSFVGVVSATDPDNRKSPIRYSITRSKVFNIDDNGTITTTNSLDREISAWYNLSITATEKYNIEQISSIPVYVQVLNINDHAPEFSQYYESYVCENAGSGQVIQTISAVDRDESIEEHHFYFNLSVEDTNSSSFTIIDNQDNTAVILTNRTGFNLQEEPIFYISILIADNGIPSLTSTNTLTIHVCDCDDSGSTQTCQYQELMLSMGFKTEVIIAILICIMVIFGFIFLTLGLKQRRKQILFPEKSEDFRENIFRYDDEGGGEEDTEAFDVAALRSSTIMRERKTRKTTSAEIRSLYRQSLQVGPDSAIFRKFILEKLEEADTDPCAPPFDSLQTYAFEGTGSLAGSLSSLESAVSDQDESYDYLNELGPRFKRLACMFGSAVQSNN

B1: anti-CDH19 antibody 4A2 (Ab ID 13592) (antibody, human IgG1, kappa, V domains shown)
VH: QVQLQESGPGLVKPSQTLSLTCTVSGGSISSSGYYWSWIRQHPGKGLEWIGYIYYTGSAYYNPSLKSRVTISVDTSKNQFSLKLSSVTAADTAVYYCARDGSSGWYFQYWGQGTLVTVSS
VL: EIVLTQSPGTLSLSPGERATLSCRASRNISSSYLAWYQQKPGQAPRLLIYGPSSRATGIPDRFSGSGSGTDFTLTISRLEPEDFTVYYCQQYGSSFTFGPGTKVDIKR
notes: Bin 4
With B1, the binding result in test [1] and in test [2] was “no binding (tested: 5 ug/ml)” each time.

B2: hu anti-<huCDH19> 4B10 (Ab ID 13590) (antibody, V domains shown)
VH: QVQLVESGGGVVQPGRSLRLSCAASGFTFSSYDMHWVRQAPGKGLEWVAVISYDGTNEYYADSVKGRFTISRDTSKNTLYLQMNSLRAEDTAVYYCARERYFDWSFDYWGQGTLVSVSS
VL: EIVLTQSPGTLSLSPGERATLSCRASQSVSNTYLAWYHQRPGQAPRLLIYGASSRATGIPDRFSGSGSGTDFALTISSLEPEDFAVYYCQQYSNSWTFGQGTKVEIKR
notes: huIgG1z / huKLC; Bin 4
On to B2, for which the binding result was “binds” in test [3], “no binding (tested: 5 ug/ml)” in test [1] and “no binding (tested: 5 ug/ml)” in test [2].

B3: hu anti-<huCDH19> 4A9 (Ab ID 13589) (antibody, human IgG1, lambda, V domains shown)
VH: QVQLQESGPGLVKPSETLSLTCTVSGGSISGYYWSWIRQPPGKGLEWFAYFSYSGSTNYNPSLKSRVTLSVDTSKNQFSLKLSSVTAADTAVYYCARNWAFHFDFWGQGTLVTVSS
VL: QSVLTQPPSVSGAPGQRVTISCTGSSSNIGTGYAVHWYQQFPGTAPKLLIYGNNNRPSGVPDRFSGSKSGTSASLAITGLQAEDEADYYCQSYDSRLSGWVFGGGTKLTVLG
notes: huIgG1z / huLLC-C1; Bin 1
B3: the binding result in test [4], in test [3], in test [1] and in test [2] was “no binding (tested: 5 ug/ml)” each time.

B4: anti-CDH19 antibody 2G6 (Ab ID 13588) (antibody, human IgG1, lambda, V domains shown)
VH: QVQLVESGGGVVQPGRSLRLSCAASGFTFSSYGMHWVRQAPGKGLEWVAFIWYDGSNKYYADSVKDRFTISRDNSKNTLYLQMKSLRAEDTAVYYCARRAGIIGTIGYYYGMDVWGQGTTVTVSS
VL: SYELTQPPSVSVSPGQTASITCSGDRLGEKYTCWYQQRPGQSPLLVIYQDTKRPSGIPERFSGSNSGNTATLTISGTQAMDEADYYCQAWDSSTVVFGGGTKLTVLG
notes: Bin 4
As to B4, the binding result was “binds” in test [3], “no binding (tested: 5 ug/ml)” in test [1] and “no binding (tested: 5 ug/ml)” in test [2].

B5: hu anti-<huCDH19> 23A10.3 (1-474)(L92Q) VH::huIgG1z + 23A10.3 (1-231)(C42S) VL::huLLC-C2 (Ab ID 14077) (antibody, V domains shown)
VH: QVQLVESGGGVVQPGRSLRLSCAASGFTFSRYGIHWVRQAPGKGLEWVAVIWYDGSNKYYADSVKGRFTISRDNSKNTLYLQMNSLRAEDSAVYYCARRAGIPGTTGYYYGMDVWGQGTTVTVSS
VL: SYELTQPPSVSVSPGQTASITCSGDRLGEKYVSWYQQKPGQSPILVIYQDNKWPSGIPERFSGSNSGNTATLTISGTQAMDEADYYCQAWDSSTVVFGGGTKLTVLG
notes: Engineered variant of 23A10; the entries already carry the changes; Bin 4
Turning to B5, the binding result in test [3] was “binds”; in test [1], “no binding (tested: 5 ug/ml)”; in test [2], “no binding (tested: 5 ug/ml)”.

B6: hu anti-<huCDH19> 26D1.1 (Ab ID 13882) (antibody, human IgG1, lambda, V domains shown)
VH: QVQLVQSGAEVKKPGASVKVSCKASRYTFTSYYMSWVRQAPGQGLEWMGIIHPSGGDTTYAQKFQGRVTMTGDTSTSTVYMELSSLRSEDTAVYYCARGGIKLWLHFDYWGQGTLVTVSS
VL: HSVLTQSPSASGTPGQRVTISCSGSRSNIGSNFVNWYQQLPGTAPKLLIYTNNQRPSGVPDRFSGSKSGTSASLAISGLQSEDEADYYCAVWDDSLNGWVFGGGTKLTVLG
notes: huIgG1z / huLLC-C2; Bin 2
For the molecule B6, the binding result in test [4], in test [3], in test [1] and in test [2] was “no binding (tested: 5 ug/ml)” throughout.

B7: hu anti-<huCDH19> 25F8.1 (1-469)(F90Y) VH::huIgG1z + 25F8.1 (1-235)(K45Q,S102A,D111E) VL::huLLC-C2 (Ab ID 14096) (antibody, V domains shown)
VH: QVQLVQSGAEVKKPGASVKVSCKASGYTFTSYYIHWVRQAPGQGLEWMGIINPSGGSTRYAQKFQGRVTMTRDTSTSTVYMELSSLRSEDTAVYYCARGGIQLWLHFDYWGQGTLVTVSS
VL: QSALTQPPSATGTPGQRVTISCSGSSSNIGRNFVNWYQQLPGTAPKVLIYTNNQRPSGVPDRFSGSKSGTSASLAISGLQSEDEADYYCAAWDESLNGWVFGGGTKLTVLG
notes: Engineered variant of 25F8; the entries already carry the changes; Bin 2
For the molecule B7, the binding result in test [4], in test [3], in test [1] and in test [2] was “no binding (tested: 5 ug/ml)” in each case.

Values taken from patent publication US20220127354A1 (Amgen, published 2022).
